Test results: article PMC5470873

Biological target: T1, mouse TMEM16A(ac) isoform (mouse), Q8BHY3
T1 chain: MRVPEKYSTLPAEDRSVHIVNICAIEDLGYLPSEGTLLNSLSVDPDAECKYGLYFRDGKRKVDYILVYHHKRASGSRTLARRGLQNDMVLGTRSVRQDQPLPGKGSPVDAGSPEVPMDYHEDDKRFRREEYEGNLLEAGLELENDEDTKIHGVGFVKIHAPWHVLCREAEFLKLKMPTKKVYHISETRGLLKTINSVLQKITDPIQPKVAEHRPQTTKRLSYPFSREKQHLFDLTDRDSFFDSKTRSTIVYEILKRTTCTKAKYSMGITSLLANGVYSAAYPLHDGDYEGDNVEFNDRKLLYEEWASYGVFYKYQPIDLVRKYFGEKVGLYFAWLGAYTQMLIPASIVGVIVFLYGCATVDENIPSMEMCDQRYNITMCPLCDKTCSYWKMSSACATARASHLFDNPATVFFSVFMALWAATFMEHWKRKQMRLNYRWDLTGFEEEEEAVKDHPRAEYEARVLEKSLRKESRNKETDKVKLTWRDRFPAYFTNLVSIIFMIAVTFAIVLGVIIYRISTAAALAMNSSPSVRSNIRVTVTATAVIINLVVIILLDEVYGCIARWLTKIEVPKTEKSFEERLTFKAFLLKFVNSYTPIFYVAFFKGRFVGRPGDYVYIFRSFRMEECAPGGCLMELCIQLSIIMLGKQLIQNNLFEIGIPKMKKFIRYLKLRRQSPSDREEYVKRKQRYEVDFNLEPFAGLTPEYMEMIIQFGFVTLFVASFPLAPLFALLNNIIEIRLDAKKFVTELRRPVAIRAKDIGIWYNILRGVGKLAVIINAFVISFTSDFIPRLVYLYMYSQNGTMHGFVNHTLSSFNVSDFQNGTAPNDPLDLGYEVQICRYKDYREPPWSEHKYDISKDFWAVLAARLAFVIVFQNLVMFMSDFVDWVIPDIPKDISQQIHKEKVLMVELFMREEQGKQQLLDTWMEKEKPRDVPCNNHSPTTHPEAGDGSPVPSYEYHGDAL
Test: cryo-EM structure; purified mTMEM16A at 3 mg/ml in 0.12% digitonin, 20 mM HEPES pH 7.5, 150 mM NaCl, 0.5 mM CaCl2; single particle reconstruction with C2 symmetry imposed, 6.6 Å; poly-alanine model
Settings: remark: other sources report otherwise

stoichiometry N: 2
B1: mouse TMEM16A(ac) isoform, Q8BHY3 1-960 (natural protein)
chain: MRVPEKYSTLPAEDRSVHIVNICAIEDLGYLPSEGTLLNSLSVDPDAECKYGLYFRDGKRKVDYILVYHHKRASGSRTLARRGLQNDMVLGTRSVRQDQPLPGKGSPVDAGSPEVPMDYHEDDKRFRREEYEGNLLEAGLELENDEDTKIHGVGFVKIHAPWHVLCREAEFLKLKMPTKKVYHISETRGLLKTINSVLQKITDPIQPKVAEHRPQTTKRLSYPFSREKQHLFDLTDRDSFFDSKTRSTIVYEILKRTTCTKAKYSMGITSLLANGVYSAAYPLHDGDYEGDNVEFNDRKLLYEEWASYGVFYKYQPIDLVRKYFGEKVGLYFAWLGAYTQMLIPASIVGVIVFLYGCATVDENIPSMEMCDQRYNITMCPLCDKTCSYWKMSSACATARASHLFDNPATVFFSVFMALWAATFMEHWKRKQMRLNYRWDLTGFEEEEEAVKDHPRAEYEARVLEKSLRKESRNKETDKVKLTWRDRFPAYFTNLVSIIFMIAVTFAIVLGVIIYRISTAAALAMNSSPSVRSNIRVTVTATAVIINLVVIILLDEVYGCIARWLTKIEVPKTEKSFEERLTFKAFLLKFVNSYTPIFYVAFFKGRFVGRPGDYVYIFRSFRMEECAPGGCLMELCIQLSIIMLGKQLIQNNLFEIGIPKMKKFIRYLKLRRQSPSDREEYVKRKQRYEVDFNLEPFAGLTPEYMEMIIQFGFVTLFVASFPLAPLFALLNNIIEIRLDAKKFVTELRRPVAIRAKDIGIWYNILRGVGKLAVIINAFVISFTSDFIPRLVYLYMYSQNGTMHGFVNHTLSSFNVSDFQNGTAPNDPLDLGYEVQICRYKDYREPPWSEHKYDISKDFWAVLAARLAFVIVFQNLVMFMSDFVDWVIPDIPKDISQQIHKEKVLMVELFMREEQGKQQLLDTWMEKEKPRDVPCNNHSPTTHPEAGDGSPVPSYEYHGDAL
